Source: US20070178460A1 (ECOLE POLYTECHNIQUE FEDERALE DE LAUSANNE, published 2007)

T1: Ste14p-^44Ctrp (Saccharomyces cerevisiae, UniProt P32584 1-239)
T1 construct: whole, on cells; Control fusion; Ctrp fused to the cytoplasmic site of Ste14p; also called Ste14p-Ctrp; STE14-^44Ctrp; not shown: HA tag at the C terminus of Trp1p
T1 sequence: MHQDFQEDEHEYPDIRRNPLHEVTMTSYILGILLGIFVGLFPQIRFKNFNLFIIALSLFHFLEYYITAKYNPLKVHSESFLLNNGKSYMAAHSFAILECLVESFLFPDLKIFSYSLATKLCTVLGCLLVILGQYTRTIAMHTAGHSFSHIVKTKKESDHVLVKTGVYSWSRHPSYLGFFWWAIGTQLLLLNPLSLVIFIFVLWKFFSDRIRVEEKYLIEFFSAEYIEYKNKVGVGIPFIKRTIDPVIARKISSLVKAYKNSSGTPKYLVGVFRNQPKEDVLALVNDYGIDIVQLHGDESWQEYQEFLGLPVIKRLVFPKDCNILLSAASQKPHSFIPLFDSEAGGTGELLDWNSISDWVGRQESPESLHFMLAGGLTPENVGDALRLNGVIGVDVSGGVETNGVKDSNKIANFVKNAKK

T2: Sec63p-^44Ctrp (Saccharomyces cerevisiae, UniProt P14906 1-663)
T2 construct: whole, on cells; Expressed in yeast EGY48 from pRS316CUP1 under the PCUP1-promoter; also called Sec63p-Ctrp; SEC63-^44Ctrp; not shown: HA tag at the C terminus of Trp1p
T2 sequence: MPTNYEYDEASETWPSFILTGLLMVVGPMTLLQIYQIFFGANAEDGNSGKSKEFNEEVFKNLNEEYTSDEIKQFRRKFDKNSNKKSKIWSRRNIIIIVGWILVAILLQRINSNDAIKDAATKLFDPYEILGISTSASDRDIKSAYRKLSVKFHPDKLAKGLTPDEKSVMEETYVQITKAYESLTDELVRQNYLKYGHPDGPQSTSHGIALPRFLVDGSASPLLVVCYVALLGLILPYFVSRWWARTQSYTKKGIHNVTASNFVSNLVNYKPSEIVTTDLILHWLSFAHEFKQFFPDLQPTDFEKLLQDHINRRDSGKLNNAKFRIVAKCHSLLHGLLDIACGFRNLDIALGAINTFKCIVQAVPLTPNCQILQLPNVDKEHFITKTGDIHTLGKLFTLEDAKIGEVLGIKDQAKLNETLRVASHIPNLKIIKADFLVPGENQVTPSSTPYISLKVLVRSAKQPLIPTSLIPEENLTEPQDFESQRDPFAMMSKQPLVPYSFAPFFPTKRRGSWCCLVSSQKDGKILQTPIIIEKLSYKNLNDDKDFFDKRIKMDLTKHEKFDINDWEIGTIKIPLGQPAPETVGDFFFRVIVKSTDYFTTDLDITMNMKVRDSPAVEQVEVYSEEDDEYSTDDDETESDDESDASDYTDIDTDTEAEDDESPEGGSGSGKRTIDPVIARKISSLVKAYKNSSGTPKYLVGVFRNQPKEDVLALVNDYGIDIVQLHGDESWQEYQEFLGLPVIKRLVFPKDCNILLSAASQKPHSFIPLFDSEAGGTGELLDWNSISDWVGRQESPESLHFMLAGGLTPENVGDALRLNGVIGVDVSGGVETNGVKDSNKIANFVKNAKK

T3: ^187Ntrp-Sec62p (Saccharomyces cerevisiae, UniProt P21825 2-274)
T3 construct: whole, on cells; Expressed in yeast EGY48 from pRS315CUP1 under the PCUP1-promoter; not shown: 6x His tag at the N-terminus of Ntrp
T3 sequence: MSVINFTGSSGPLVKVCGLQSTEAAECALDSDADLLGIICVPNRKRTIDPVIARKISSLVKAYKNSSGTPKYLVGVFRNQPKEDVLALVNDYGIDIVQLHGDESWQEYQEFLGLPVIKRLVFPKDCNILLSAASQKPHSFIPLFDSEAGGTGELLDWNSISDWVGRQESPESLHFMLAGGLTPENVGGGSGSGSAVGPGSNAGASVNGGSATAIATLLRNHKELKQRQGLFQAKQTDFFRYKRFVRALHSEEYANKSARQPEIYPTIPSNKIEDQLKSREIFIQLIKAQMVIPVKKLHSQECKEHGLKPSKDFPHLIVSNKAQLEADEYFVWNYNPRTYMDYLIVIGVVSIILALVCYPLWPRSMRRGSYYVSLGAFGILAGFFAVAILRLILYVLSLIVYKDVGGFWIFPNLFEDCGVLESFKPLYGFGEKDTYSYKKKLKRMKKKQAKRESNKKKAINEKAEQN


Key:
Assay in all cases: split-Trp growth complementation in trp1 yeast EGY48
Ste14p-^44Ctrp = molecular target: T1, Ste14p-^44Ctrp
Excerpt: (§1) To monitor the interaction between Sec62p and Sec63p, trp1 yeast strains expressing pairs of matching Nₜᵣₚ-Sec62p and Sec63p-Cₜᵣₚ fusion proteins were spotted on selective plates lacking tryptophan (FIG. 5). […] To verify that the observed complementation of tryptophan auxotrophy is a result of the interaction between the Sec62p and Sec63p moieties of the fusion proteins, we fused the C-terminal fragments of split-Trp⁴⁴ and split-Trp¹⁸⁷ to the cytoplasmic site of Ste14p (FIG. 4B). Ste14p is a membrane protein of the ER that is known to interact with neither Sec62p nor Sec63p (FIG. 4B) (cf. Wittke, S., Lewke, N., Muller, S., and Johnsson, N. (1999), Mol Biol Cell 10, 2519-2530). No growth on plates lacking tryptophan was observed when matching pairs of Sec62p and Ste14p fusion proteins were co-expressed at 23° C. or 30° C. for 10 days (FIG. 5). The cellular amount of Ste14p-⁴⁴Cₜᵣₚ is roughly 2-3 fold lower than the amount of Sec63p-⁴⁴Cₜᵣₚ as determined by western blotting (data not shown). Since this relatively small effect cannot account for the clear growth difference between the strains expressing either ⁴⁴Nₜᵣₚ-Sec62p/Sec63p-⁴⁴Cₜᵣₚ or ⁴⁴Nₜᵣₚ-Sec62p/Ste14p-⁴⁴Cₜᵣₚ, we conclude that the ⁴⁴Nₜᵣₚ-Sec62p/Sec63p-⁴⁴Cₜᵣₚ interaction signal is specific.

Sec63p-^44Ctrp = molecular target: T2, Sec63p-^44Ctrp
Excerpt: as §1

^187Ntrp-Sec62p = molecular target: T3, ^187Ntrp-Sec62p
Excerpt: as §1

| binding result (Ste14p-^44Ctrp) | binding result (Sec63p-^44Ctrp) | binding result (^187Ntrp-Sec62p) | Binder |
| --- | --- | --- | --- |
| no binding | binds | – | ^44Ntrp-Sec62p (other, Saccharomyces cerevisiae, whole, on cells; Expressed in yeast EGY48 from pRS315CUP1 under the PCUP1-promoter; Ntrp at the N terminus of Sec62p; not shown: 6x His tag at the N-terminus of Ntrp) MSVINFTCSSGPLVKVCGLQSTEAAECALDSDADLLGIICVPNRGGSGSGSAVGPGSNAGASVNGGSATAIATLLRNHKELKQRQGLFQAKQTDFFRYKRFVRALHSEEYANKSARQPEIYPTIPSNKIEDQLKSREIFIQLIKAQMVIPVKKLHSQECKEHGLKPSKDFPHLIVSNKAQLEADEYFVWNYNPRTYMDYLIVIGVVSIILALVCYPLWPRSMRRGSYYVSLGAFGILAGFFAVAILRLILYVLSLIVYKDVGGFWIFPNLFEDCGVLESFKPLYGFGEKDTYSYKKKLKRMKKKQAKRESNKKKAINEKAEQN |
| – | – | no binding | Ste14p-^187Ctrp (other, Saccharomyces cerevisiae, whole, on cells; Control fusion; Ctrp fused to the cytoplasmic site of Ste14p; also called Ste14p-Ctrp; not shown: HA tag at the C terminus of Trp1p) MHQDFQEDEHEYPDIRRNPLHEVTMTSYILGILLGIFVGLFPQIRFKNFNLFIIALSLFHFLEYYITAKYNPLKVHSESFLLNNGKSYMAAHSFAILECLVESFLFPDLKIFSYSLATKLCTVLGCLLVILGQYTRTIAMHTAGHSFSHIVKTKKESDHVLVKTGVYSWSRHPSYLGFFWWAIGTQLLLLNPLSLVIFIFVLWKFFSDRIRVEEKYLIEFFSAEYIEYKNKVGVGIPFIDALRLNGVIGVDVSGGVETNGVKDSNKIANFVKNAKK |
